Tests used:
[1] = molecular target: 35S-labeled Vpu TM domain, in vitro translated (gel permeation) (HIV-1, isolate not stated (NL4-3 and R5 cloned)); assay: SEC; gel permeation of 35S-labeled in vitro translation mixture on Sephacryl S200HR in PBS, calibrated with lysozyme and BSA; pentamer and monomer peaks
[2] = molecular target: 35S-labeled full-length Vpu protein, in vitro translated (gel permeation) (HIV-1, isolate not stated (NL4-3 and R5 cloned)); assay: as above
[3] = molecular target: Vpu fused to ECFP or to EYFP (HIV-1, isolate not stated (NL4-3 and R5 cloned)); assay: FRET or BRET; acceptor photobleaching FRET of ECFP-Vpu and EYFP-Vpu in live COS-1 cells with low expression, punctate and vesicular distribution
[4] = molecular target: Vpu fused to ECFP or to EYFP (HIV-1, isolate not stated (NL4-3 and R5 cloned)); assay: FRET or BRET; acceptor photobleaching FRET of ECFP-Vpu and EYFP-Vpu in live U2-OS cells, regions that appeared to be Golgi or unidentified vesicles

35S-labeled Vpu TM domain, in vitro translated (gel permeation) (domain or fragment)
percent of the radioactivity in the oligomer peak [1]: 10% | stoichiometry N [1]: 5

35S-labeled full-length Vpu protein, in vitro translated (gel permeation) (natural protein)
percent of the radioactivity in the oligomer peak [2]: 10% | stoichiometry N [2]: 5

Vpu fused to ECFP or to EYFP (natural protein)
FRET efficiency [3]: 18.5% | FRET efficiency [4]: 26%
